Literature values, collected in patent publication US20250361227A1, “INHIBITORS OF FLI1 AND ERG” (UNIVERSITY OF VIRGINIA PATENT FOUNDATION, priority 2022, published 2025).

Molecular target: DNA
Conditions: ITC, ERG construct binding to DNA; ±SE in cell beside; cited from earlier work

B1: 210-462: ERG truncation construct, residues 210-462 (protein, UniProt P11308 210-462, looked up, fragment)
chain: KALQNSPRLMHARNTGGAAFIFPNTSVYPEATQRITTRPDLPYEPPRRSAWTGHGHPTPQSKAAQPSPSTVPKTEDQRPQLDPYQILGPTSSRLANPGSGQIQLWQFLLELLSDSSNSSCITWEGTNGEFKMTDPDEVARRWGERKSKPNMNYDKLSRALRYYYDKNIMTKVHGKRYAYKFDFHGIAQALQPHPPESSLYKYPSDLPYMGSYHAHPQKMNFVAPHPPALPVTSSSFFAAPNPYWNSPTGGIYP
For B1, which Kd is on record?
The Kd was 104 nM.

B2: 272-378: ERG truncation construct, residues 272-378 (protein, UniProt P11308 272-378, looked up, fragment)
chain: AAQPSPSTVPKTEDQRPQLDPYQILGPTSSRLANPGSGQIQLWQFLLELLSDSSNSSCITWEGTNGEFKMTDPDEVARRWGERKSKPNMNYDKLSRALRYYYDKNIM
For B2, which Kd is on record?
The Kd was 33 nM.

B3: 272-388: the auto-inhibited construct of ERG (272-388) (protein, UniProt P11308 272-388, looked up, fragment)
chain: AAQPSPSTVPKTEDQRPQLDPYQILGPTSSRLANPGSGQIQLWQFLLELLSDSSNSSCITWEGTNGEFKMTDPDEVARRWGERKSKPNMNYDKLSRALRYYYDKNIMTKVHGKRYAY
With B3 as the molecule, how does the Kd read?
Its Kd is 176 nM.

B4: 289-378: the uninhibited DNA binding domain construct of ERG (289-378) (protein, UniProt P11308 289-378, looked up, fragment)
chain: QLDPYQILGPTSSRLANPGSGQIQLWQFLLELLSDSSNSSCITWEGTNGEFKMTDPDEVARRWGERKSKPNMNYDKLSRALRYYYDKNIM
With B4 as the molecule, how does the Kd read?
The Kd was 37 nM.

B5: 289-412: ERG truncation construct, residues 289-412 (protein, UniProt P11308 289-412, looked up, fragment)
chain: QLDPYQILGPTSSRLANPGSGQIQLWQFLLELLSDSSNSSCITWEGTNGEFKMTDPDEVARRWGERKSKPNMNYDKLSRALRYYYDKNIMTKVHGKRYAYKFDFHGIAQALQPHPPESSLYKYP
Which Kd does the source give for B5 here?
Its Kd is 51 nM.

B6: 1-462: ERG construct, residues 1-462 (protein, UniProt P11308 1-462, looked up, fragment)
chain: MASTIKEALSVVSEDQSLFECAYGTPHLAKTEMTASSSSDYGQTSKMSPRVPQQDWLSQPPARVTIKMECNPSQVNGSRNSPDECSVAKGGKMVGSPDTVGMNYGSYMEEKHMPPPNMTTNERRVIVPADPTLWSTDHVRQWLEWAVKEYGLPDVNILLFQNIDGKELCKMTKDDFQRLTPSYNADILLSHLHYLRETPLPHLTSDDVDKALQNSPRLMHARNTGGAAFIFPNTSVYPEATQRITTRPDLPYEPPRRSAWTGHGHPTPQSKAAQPSPSTVPKTEDQRPQLDPYQILGPTSSRLANPGSGQIQLWQFLLELLSDSSNSSCITWEGTNGEFKMTDPDEVARRWGERKSKPNMNYDKLSRALRYYYDKNIMTKVHGKRYAYKFDFHGIAQALQPHPPESSLYKYPSDLPYMGSYHAHPQKMNFVAPHPPALPVTSSSFFAAPNPYWNSPTGGIYP
Which Kd does the source give for B6 here?
The Kd was 121 nM.

B7: 289-388: ERG truncation construct, residues 289-388 (protein, UniProt P11308 289-388, looked up, fragment)
chain: QLDPYQILGPTSSRLANPGSGQIQLWQFLLELLSDSSNSSCITWEGTNGEFKMTDPDEVARRWGERKSKPNMNYDKLSRALRYYYDKNIMTKVHGKRYAY
For B7, which Kd is on record?
The Kd was 41 nM.
